Drawing on patent publication US20250186620A1 (DUKE UNIVERSITY, published 2025), this text covers binding result and FETCH score for 17 molecules.

T1: human connexin36 (Cx36) (human, UniProt Q9UKL4 1-321)
T1 construct: whole, on cells; Hemichannel expressed in HEK 293FT cells for FETCH; also called GJD2; not shown: C-terminal fluorescent protein fusion (mEmerald or RFP670 in FETCH)
T1 sequence (looked up): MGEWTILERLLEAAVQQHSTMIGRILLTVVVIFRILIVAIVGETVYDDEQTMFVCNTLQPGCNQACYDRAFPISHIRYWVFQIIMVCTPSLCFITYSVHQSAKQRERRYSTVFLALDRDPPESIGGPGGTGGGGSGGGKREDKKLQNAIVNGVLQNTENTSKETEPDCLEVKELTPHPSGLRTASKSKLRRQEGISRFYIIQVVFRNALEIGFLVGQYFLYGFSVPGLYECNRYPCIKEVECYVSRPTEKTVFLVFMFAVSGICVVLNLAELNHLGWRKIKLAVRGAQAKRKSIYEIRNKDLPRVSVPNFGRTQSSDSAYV

B1: Cx35K221E (designer connexin Cx35M1, Morone americana Cx35 with K221E) (other)
chain: MGEWTILERLLEAAVQQHSTMIGRILLTVVVIFRILIVAIVGETVYDDEQTMFVCNTLQPGCNQACYDKAFPISHIRYWVFQIIMVCTPSLCFITYSVHQSAKQKERRYSTVYLTLDKDQDSLKRDESKKIKNTIVNGVLQNTENSTKEAEPDCLEVKEIPNSAMRTTKSKMRRQEGISRFYIIQVVFRNALEIGFLVGQYFLYGFNVPSVYECDRYPCIEDVECYVSRPTEKTVFLVFMFAVSGFCVVLNLAELNHLGWRKIKTAVRGVQARRKSIYEIRNKDLPRMSVPNFGRTQSSDSAYV
notes: Rationally designed hemichannel; In C. elegans expressed as GFP or mCherry fusion; in mice from AAV9 as mApple or mEmerald fusion; not shown: C-terminal fluorescent protein fusion (mEmerald or RFP670 in FETCH)
B2: Wild-type Connexin35 (Cx35) of Morone americana (other)
chain: B1 chain with E221K
notes: Connexin hemichannel (hexamer) expressed in HEK 293FT cells; In C. elegans it was expressed as GFP or mCherry fusion; also called Cx35WT; not shown: C-terminal fluorescent protein fusion (mEmerald or RFP670 in FETCH)
B3: Cx35E224H (Morone americana Cx35 mutant E224H) (other)
chain: B1 chain with E221K, E224H
notes: Extracellular loop mutant of the screening library; not shown: C-terminal fluorescent protein fusion (mEmerald or RFP670 in FETCH)
B4: Cx35E224K (Morone americana Cx35 mutant E224K) (other)
chain: B1 chain with E221K, E224K
notes: as for B3
B5: Cx35E224R (Morone americana Cx35 mutant E224R) (other)
chain: B1 chain with E221K, E224R
notes: as for B3
B6: Cx34.7 mutant E225R (Morone americana) (other)
chain: MGEWTILERLLEAAVQQHSTMIGRILLTVVVIFRILIVAIVGETVYEDEQAMFICNTLQPGCNQACYDKAFPISHIRYWVFQIILVCTPSLCFITYSVHQSAKQKDRRYSFLYPIMERDYGGRDGARKLRNINGILVQHGGDGGGGKEEPDCLEVKEIPNAPRGLTHGKSSKVRRQEGISRFYIIQVVFRNALEIGFLAGQYFLYGFSVPGIFECDRYPCLKEVRCYVSRPTEKTVFLVFMFAVSGICVVLNLAELNHLGWRKIKAAIRGVQARRKSICEIRKKDMAHLSQPPNLGRTQSSESAYV
notes: Extracellular loop mutant of the screening library; also called Cx34.7 E225R; not shown: C-terminal fluorescent protein fusion (mEmerald or RFP670 in FETCH)
B7: Cx34.7 mutant Y78T (Morone americana) (other)
chain: B6 chain with Y78T, R225E
notes: Extracellular loop mutant of the screening library; also called Cx34.7 Y78T; not shown: C-terminal fluorescent protein fusion (mEmerald or RFP670 in FETCH)
B8: Cx34.7 mutant E225K (Morone americana) (other)
chain: B6 chain with R225K
notes: Extracellular loop mutant of the screening library; also called Cx34.7 E225K; not shown: C-terminal fluorescent protein fusion (mEmerald or RFP670 in FETCH)
B9: Cx34.7 mutant Y78V (Morone americana) (other)
chain: B6 chain with Y78V, R225E
notes: Extracellular loop mutant of the screening library; also called Cx34.7 Y78V; not shown: C-terminal fluorescent protein fusion (mEmerald or RFP670 in FETCH)
B10: Cx34.7 mutant Y78S (Morone americana) (other)
chain: B6 chain with Y78S, R225E
notes: Extracellular loop mutant of the screening library; also called Cx34.7 Y78S; not shown: C-terminal fluorescent protein fusion (mEmerald or RFP670 in FETCH)
B11: Cx34.7 mutant L238Y (Morone americana) (other)
chain: B6 chain with R225E, L238Y
notes: Extracellular loop mutant of the screening library; also called Cx34.7 L238Y; not shown: C-terminal fluorescent protein fusion (mEmerald or RFP670 in FETCH)
B12: Cx35 mutant Y78T (Morone americana) (other)
chain: B1 chain with Y78T, E221K
notes: Extracellular loop mutant of the screening library; also called Cx35 Y78T; not shown: C-terminal fluorescent protein fusion (mEmerald or RFP670 in FETCH)
B13: Cx35 mutant Y78S (Morone americana) (other)
chain: B1 chain with Y78S, E221K
notes: Extracellular loop mutant of the screening library; also called Cx35 Y78S; not shown: C-terminal fluorescent protein fusion (mEmerald or RFP670 in FETCH)
B14: Cx35 mutant Y78V (Morone americana) (other)
chain: B1 chain with Y78V, E221K
notes: Extracellular loop mutant of the screening library; also called Cx35 Y78V; not shown: C-terminal fluorescent protein fusion (mEmerald or RFP670 in FETCH)
B15: Cx35 mutant N56E (Morone americana) (other)
chain: B1 chain with N56E, E221K
notes: Extracellular loop mutant of the screening library; also called Cx35 N56E; not shown: C-terminal fluorescent protein fusion (mEmerald or RFP670 in FETCH)
B16: Cx35 mutant L237Y (Morone americana) (other)
chain: B1 chain with E221K, L237Y
notes: Extracellular loop mutant of the screening library; also called Cx35 L237Y; not shown: C-terminal fluorescent protein fusion (mEmerald or RFP670 in FETCH)
B17: Cx34.7E214K/E223K/E225K (Morone americana Cx34.7 triple mutant) (protein, not shown: large carriers)
chain: B6 chain with E214K, E223K, R225K

Numbering of substitutions follows the chain as printed. In names and notes the source's numbering stands.

One series concerns the molecule itself. The series is described as follows: homotypic FETCH. Here is the method:
(§1) Complete FETCH methodology is outlined in Ransey et. al. 2021 (Ransey E, et al. (2021) BioRxiv). Briefly, replica multi-well plates with HEK 293FT cells were transfected with either of the two connexin proteins being evaluated for docking. Following a transfection incubation period, experimental counterparts were combined, replated, and further incubated for about 20 hr to about 24 hrs, allowing cells to make contacts and potentially generate connexosomes. Co-plated samples were trypsinized, fixed in suspension and analyzed via flow cytometry. Flow cytometry data was processed with two selection gates prior to their fluorescence evaluation. First, putative HEK cells were identified by evaluating sample forward vs. side scatter area. Next, single cells were identified as the putative cells that maintained a linear correlation of forward scatter height to forward scatter area. Finally, the dual fluorescence (mEmerald vs. RFP670) profiles of each sample was generated, and the FETCH score was defined as the proportion of dual-labeled fluorescent cells that develop in a co-plated sample.
On to B1, for which the binding result was “no binding”.

Another series deals with the molecule itself. The series is described as follows: FETCH (flow cytometry, % dual-labelled HEK 293FT cells), homotypic. Here is the method: as §1
For orientation: In flow cytometry, cells or beads pass a laser one at a time.
Consider B1, for which the FETCH score was 1.2%.

In another series the target is T2, human connexin43 (Cx43) (human, UniProt P17302 2-382).
T2 construct: whole, on cells; Hemichannel expressed in HEK 293FT cells for FETCH; also called GJA1; not shown: C-terminal fluorescent protein fusion (mEmerald or RFP670 in FETCH)
T2 sequence (P17302 2-382): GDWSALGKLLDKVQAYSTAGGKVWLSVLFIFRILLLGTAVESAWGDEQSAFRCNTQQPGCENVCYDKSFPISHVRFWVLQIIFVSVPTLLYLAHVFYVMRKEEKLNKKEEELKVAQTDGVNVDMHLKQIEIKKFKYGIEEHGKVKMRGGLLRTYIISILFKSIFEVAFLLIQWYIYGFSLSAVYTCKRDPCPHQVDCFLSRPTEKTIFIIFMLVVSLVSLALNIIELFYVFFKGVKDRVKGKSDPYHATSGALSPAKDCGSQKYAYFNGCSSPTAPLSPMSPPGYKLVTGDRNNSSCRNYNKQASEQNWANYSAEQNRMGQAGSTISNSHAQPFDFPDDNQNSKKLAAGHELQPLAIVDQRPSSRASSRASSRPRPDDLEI
Put plainly: FETCH (flow cytometry, % dual-labelled HEK 293FT cells), heterotypic. Here is the method: as §1
B1 showed an FETCH score of 1.7%.

The next series deals with T1, human connexin36 (Cx36). Described as above. How it is done: as §1
In the case of B2, the FETCH score turned out to be 18%.

In turn, B3 registered an FETCH score of 5.9%.

As for B1, the FETCH score worked out at 1.5%.

Take B4: the FETCH score came out at 0.8%.

With B5, the FETCH score was 0.6%.

Another series concerns the target T2, human connexin43 (Cx43). The series is described as follows: FETCH (flow cytometry, % dual-labelled HEK 293FT cells), heterotypic, n=6. Here is the method: as §1
Regarding B3, the FETCH score was determined as 0.4%.

As for B4, the FETCH score is 0.5%.

For the molecule B5, the FETCH score is 0.5%.

The next series concerns the target Cx34.7E214K/E223K/E225K (Morone americana Cx34.7 triple mutant) (Morone americana). The series is described as follows: FETCH (flow cytometry, % dual-labelled HEK 293FT cells), heterotypic.
With B1, the FETCH score came to 1.2%.

A further series concerns the molecule itself. Put plainly: homotypic FETCH screen. How it is done: as §1
For screening analysis, five FETCH replicates were obtained for each condition (mutation). These scores were benchmarked against scores for Cx36 and Cx45 (FETCH=1.2±0.1%, n=54 replicates). To quantitatively determine whether a connexin pair docked, FETCH scores were determined for the dual fluorescence of cells under conditions where docking was not anticipated. These conditions included pairs of connexins previously established to not show docking: (i) Cx36 and Cx45 (FETCH=0.7±0.0%, n=59 replicates), (ii) homotypic Cx23 (FETCH=0.9±0.4%, n=6 previously collected replicates (Ransey E, et al. (2021) BioRxiv), and (iii) Cx36 and Cx43 (FETCH=1.2±0.2%, n=10 previously collected replicates (Ransey E, et al. (2021) BioRxiv), and under conditions for which cells were transfected with cytoplasmic fluorophores rather than tagged connexins (FETCH=4.4±0.6%, n=17 previously collected replicates (Ransey E, et al. (2021) BioRxiv).
Consider B6, for which the binding result is reported as “no binding”.

As to B7, the binding result is reported as “no binding”.

As for B8, the binding result was “no binding”.

B9: the binding result is given as “no binding”.

Turning to B10, the binding result was “no binding”.

For the molecule B11, the binding result is given as “no binding”.

As to B12, the binding result is given as “no binding”.

As to B13, the binding result was “no binding”.

For the molecule B14, the binding result is given as “no binding”.

As for B3, the binding result is “no binding”.

Consider B15, for which the binding result was “no binding”.

Regarding B16, the binding result is recorded as “no binding”.

Turning to B4, the binding result is “no binding”.

Regarding B5, the binding result is recorded as “no binding”.

A further series addresses Cx34.7E214K/E223K/E225K (Morone americana Cx34.7 triple mutant) (Morone americana). The series is described as follows: FETCH (flow cytometry, % dual-labelled HEK 293FT cells), homotypic.
The molecule B17 had an FETCH score of 0.2%.

In the next series the target is T2, human connexin43 (Cx43). Put plainly: heterotypic FETCH. How it is done:
as §1
Turning to B3, the binding result was “no binding”.

As to B1, the binding result is recorded as “no binding”.

As to B4, the binding result is on record as “no binding”.

For B5, the binding result is recorded as “no binding”.

The target of a further series is T1, human connexin36 (Cx36). Put plainly: heterotypic FETCH. Here is the method:
as §1
For the molecule B1, the binding result was “no binding”.

B4: the binding result is listed as “no binding”.

Regarding B5, the binding result is “no binding”.
